Data reported in US20250353926A1 (ENLAZA THERAPEUTICS, published 2025).

What was measured:
[1] = target: T1, PSMA expressed on target cells (PC3pip cells, high density; 22Rv1 cells, low density) (UniProt Q04609 1-750, limits assumed); assay: cell-based or functional assay
[2] = target: T2, biotin-labeled CD16a (Acro P/N CDA-H82E8) (human, UniProt P08637 17-208, biotin-labeled (site not stated)); assay: BLI (Octet), biotin-CD16a on streptavidin sensors, dilutions from 200 nM to 3.125 nM
T2 construct: also called recombinant human CD16a; immobilized CD16a
T2 sequence (P08637 17-208 limits assumed): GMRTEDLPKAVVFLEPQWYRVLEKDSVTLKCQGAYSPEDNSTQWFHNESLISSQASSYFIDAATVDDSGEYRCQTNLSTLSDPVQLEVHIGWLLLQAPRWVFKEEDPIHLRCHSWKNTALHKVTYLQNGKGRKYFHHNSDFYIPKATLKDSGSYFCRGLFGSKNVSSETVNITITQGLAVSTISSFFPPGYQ

[3] = target: T3, Biotinylated his-tagged human PSMA (human, UniProt Q04609 44-750, limits assumed, biotinylated (site not stated)); assay: BLI, biotinylated his-tagged human PSMA on streptavidin sensors, pH 5.7
T3 construct: also called immobilized PSMA; not shown: his tag
T3 sequence (Q04609 44-750 limits assumed): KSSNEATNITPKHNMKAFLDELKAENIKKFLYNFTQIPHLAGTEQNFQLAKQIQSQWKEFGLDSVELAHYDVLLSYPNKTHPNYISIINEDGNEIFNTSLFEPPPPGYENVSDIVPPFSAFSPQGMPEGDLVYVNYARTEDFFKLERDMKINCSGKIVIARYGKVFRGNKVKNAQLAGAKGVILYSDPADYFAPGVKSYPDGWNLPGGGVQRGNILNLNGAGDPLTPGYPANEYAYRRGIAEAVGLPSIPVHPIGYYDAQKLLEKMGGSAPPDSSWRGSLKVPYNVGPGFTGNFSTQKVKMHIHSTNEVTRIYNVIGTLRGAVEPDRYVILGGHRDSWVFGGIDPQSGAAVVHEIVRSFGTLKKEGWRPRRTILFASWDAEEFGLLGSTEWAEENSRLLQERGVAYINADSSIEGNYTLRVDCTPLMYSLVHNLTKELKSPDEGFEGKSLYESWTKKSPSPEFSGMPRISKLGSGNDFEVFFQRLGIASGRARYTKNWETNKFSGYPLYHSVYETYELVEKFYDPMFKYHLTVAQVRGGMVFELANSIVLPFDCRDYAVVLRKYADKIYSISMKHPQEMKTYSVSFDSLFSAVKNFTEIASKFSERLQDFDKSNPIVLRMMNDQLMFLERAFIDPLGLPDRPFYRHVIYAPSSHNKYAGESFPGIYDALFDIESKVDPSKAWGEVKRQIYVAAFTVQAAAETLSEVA

[4] = target: T1, PSMA expressed on target cells (PC3pip …); assay: cell-based or functional assay; remark: listed apart in the source
[5] = target: T1, PSMA expressed on target cells (PC3pip …); assay: cell-based or functional assay; remark: listed apart in the source
[6] = target: T1, PSMA expressed on target cells (PC3pip …); assay: cell-based or functional assay; remark: listed apart in the source
[7] = target: T3, Biotinylated his-tagged human PSMA; assay: BLI, biotinylated his-tagged human PSMA on streptavidin sensors, pH 7.4
[8] = target: T1, PSMA expressed on target cells (PC3pip …); assay: cell-based or functional assay; remark: listed apart in the source
[9] = target: T1, PSMA expressed on target cells (PC3pip …); assay: cell-based or functional assay; remark: listed apart in the source
[10] = target: T2, biotin-labeled CD16a (Acro P/N …); assay: BLI, biotin-labeled CD16a on streptavidin biosensors, pH 7.4
[11] = target: T1, PSMA expressed on target cells (PC3pip …); assay: cell-based or functional assay; remark: listed apart in the source

T1 sequence (Q04609 whole entry): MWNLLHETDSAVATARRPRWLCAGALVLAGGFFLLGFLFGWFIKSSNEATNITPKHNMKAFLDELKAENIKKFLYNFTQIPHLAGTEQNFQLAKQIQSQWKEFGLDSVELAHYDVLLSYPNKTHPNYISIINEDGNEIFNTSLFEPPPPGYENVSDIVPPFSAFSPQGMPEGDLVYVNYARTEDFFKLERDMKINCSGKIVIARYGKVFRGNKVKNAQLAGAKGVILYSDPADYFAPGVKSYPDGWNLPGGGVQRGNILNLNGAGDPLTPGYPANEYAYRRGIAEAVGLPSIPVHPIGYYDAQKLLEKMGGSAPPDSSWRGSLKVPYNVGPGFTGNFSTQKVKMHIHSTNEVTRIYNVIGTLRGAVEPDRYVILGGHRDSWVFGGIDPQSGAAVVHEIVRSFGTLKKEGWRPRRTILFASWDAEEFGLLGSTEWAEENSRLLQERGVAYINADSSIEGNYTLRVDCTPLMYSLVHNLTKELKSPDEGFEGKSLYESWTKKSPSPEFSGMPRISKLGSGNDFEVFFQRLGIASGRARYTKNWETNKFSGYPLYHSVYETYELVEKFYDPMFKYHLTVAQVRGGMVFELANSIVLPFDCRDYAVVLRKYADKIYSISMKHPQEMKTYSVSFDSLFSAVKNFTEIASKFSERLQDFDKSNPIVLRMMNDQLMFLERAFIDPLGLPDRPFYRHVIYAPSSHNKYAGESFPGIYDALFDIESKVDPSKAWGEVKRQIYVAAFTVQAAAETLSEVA

B1: C34 (bispecific antibody)
chain: QVQLQESGGGSVEAGGSLRLSCARSGWPYSTYSMNWFRQAPGKEREAVAGISSTMSGIIFAESKAGQFTISQDNAKNTVYLQMNNLKPEDTAIYYCAARRXFSLSSSSDDFDYWGQGTQVTVSSGGGGSGGGGSGGGGSGGGGSEVQLVESGGGLVQPGGSLRLSCVASGDVHKINFLGWYRQAPGKEREKVAHISIGDQTDYADSAKGRFTISRDESKNMVYLQMNSLKPEDTAVYFCRAFSRIYPYDYWGQGTLVTVSSAAAYPYDVPDYGSSPSTPPTPSPSTPPHHHHHH
modifications: FSY (fluorosulfonyltyrosine) at the position printed X in SEQ ID NO: 49 (position 101 of the anti-PSMA sdAb domain)
For B1, the “EC50; T-cell luciferase reporter assay with PC3pip target cells, 6 hr” value (from here on “EC50; T-cell luciferase reporter assay”) [1] was 1.42 nM and the “fold potency against C33; T-cell luciferase reporter assay, PC3pip” value [1] was 21.9 fold.

B2: C33 (bispecific antibody)
chain: QVQLQESGGGSVEAGGSLRLSCARSGWPYSTYSMNWFRQAPGKEREAVAGISSTMSGIIFAESKAGQFTISQDNAKNTVYLQMNNLKPEDTAIYYCAARRYFSLSSSSDDFDYWGQGTQVTVSSGGGGSGGGGSGGGGSGGGGSEVQLVESGGGLVQPGGSLRLSCVASGDVHKINFLGWYRQAPGKEREKVAHISIGDQTDYADSAKGRFTISRDESKNMVYLQMNSLKPEDTAVYFCRAFSRIYPYDYWGQGTLVTVSSAAAYPYDVPDYGSSPSTPPTPSPSTPPHHHHHH
With B2 the “EC50; T-cell luciferase reporter assay” value [1] was 31.1 nM.

B3: C27 (bispecific antibody)
chain: EVQLVESGGGPVQAGGSLRLSCAASGRTYRGYSMGWFRQAPGKEREFVAAIVWSGGNTYYEDSVKGRFTISRDNAKNTMYLQMTSLKPEDSATYYCAAKIRPYIFKIAGQYDYWGQGTLVTVSSGGGGSGGGGSGGGGSGGGGSQVQLQESGGGSVEAGGSLRLSCARSGWPYSTYSMNWFRQAPGKEREAVAGISSTMSGIIFAESKAGQFTISQDNAKNTVYLQMNNLKPEDTAIYYCAARRXFSLSSSSDDFDYWGQGTQVTVSSAAAYPYDVPDYGSSPSTPPTPSPSTPPHHHHHH
modifications: FSY (fluorosulfonyltyrosine) at the position printed X in SEQ ID NO: 42 (position 101 of the anti-PSMA sdAb domain)
With B3 the “EC50; T-cell luciferase reporter assay” value [1] was 0.59 nM, the “fold efficacy against the commercial CD3-PSMA bispecific antibody; T-cell luciferase reporter assay, PC3pip” value [1] was 1.2 fold and the “fold potency against C26; T-cell luciferase reporter assay, PC3pip” value [1] was 12.7 fold. For the same binder, the “fold potency against the commercial CD3-PSMA bispecific antibody; T-cell luciferase reporter assay, PC3pip” value [1] was 1.4 fold.

B4: C26 (bispecific antibody)
chain: EVQLVESGGGPVQAGGSLRLSCAASGRTYRGYSMGWFRQAPGKEREFVAAIVWSGGNTYYEDSVKGRFTISRDNAKNTMYLQMTSLKPEDSATYYCAAKIRPYIFKIAGQYDYWGQGTLVTVSSGGGGSGGGGSGGGGSGGGGSQVQLQESGGGSVEAGGSLRLSCARSGWPYSTYSMNWFRQAPGKEREAVAGISSTMSGIIFAESKAGQFTISQDNAKNTVYLQMNNLKPEDTAIYYCAARRYFSLSSSSDDFDYWGQGTQVTVSSAAAYPYDVPDYGSSPSTPPTPSPSTPPHHHHHH
With B4 the “EC50; T-cell luciferase reporter assay” value [1] was 7.4 nM.

B5: C32 (bispecific antibody)
chain: QVQLQESGGGSVEAGGSLRLSCARSGWPYSTYSMNWFRQAPGKEREAVAGISSTMSGIIFAESKAGQFTISQDNAKNTVYLQMNNLKPEDTAIYYCAARRYFSLSSSSDDFDYWGQGTQVTVSSGGGGSGGGGSGGGGSGGGGSEVQLVESGGGLVQPGGSLRLSCAASGDIYKSFDMGWYRQAPGKQRDLVAVIGSRGNNRGRTNYADSVKGRFTISRDGTGNTVYLLMNKLRPEDTAIYYCNTAPLVAGRPWGRGTLVTVSSAAAYPYDVPDYGSSPSTPPTPSPSTPPHHHHHH
With B5 the “EC50; T-cell luciferase reporter assay” value [1] was 1.42 nM.

B6: C28 (bispecific antibody)
chain: EVQLVESGGGLVQPGGSLRLSCAASGDIYKSFDMGWYRQAPGKQRDLVAVIGSRGNNRGRTNYADSVKGRFTISRDGTGNTVYLLMNKLRPEDTAIYYCNTAPLVAGRPWGRGTLVTVSSGGGGSGGGGSGGGGSGGGGSQVQLQESGGGSVEAGGSLRLSCARSGWPYSTYSMNWFRQAPGKEREAVAGISSTMSGIIFAESKAGQFTISQDNAKNTVYLQMNNLKPEDTAIYYCAARRYFSLSSSSDDFDYWGQGTQVTVSSAAAYPYDVPDYGSSPSTPPTPSPSTPPHHHHHH
For B6, the “EC50; T-cell luciferase reporter assay” value [1] was 14.8 nM.

B7: C30 (bispecific antibody)
chain: EVQLVESGGGLVQPGGSLRLSCVASGDVHKINFLGWYRQAPGKEREKVAHISIGDQTDYADSAKGRFTISRDESKNMVYLQMNSLKPEDTAVYFCRAFSRIYPYDYWGQGTLVTVSSGGGGSGGGGSGGGGSGGGGSQVQLQESGGGSVEAGGSLRLSCARSGWPYSTYSMNWFRQAPGKEREAVAGISSTMSGIIFAESKAGQFTISQDNAKNTVYLQMNNLKPEDTAIYYCAARRXFSLSSSSDDFDYWGQGTQVTVSSAAAYPYDVPDYGSSPSTPPTPSPSTPPHHHHHH
modifications: FSY (fluorosulfonyltyrosine) at the position printed X in SEQ ID NO: 45 (position 101 of the anti-PSMA sdAb domain)
With B7 the “EC50; T-cell luciferase reporter assay” value [1] was 0.51 nM, the “fold potency against C29; T-cell luciferase reporter assay, PC3pip” value [1] was 11.8 fold and the “fold potency against the commercial CD3-PSMA bispecific antibody; T-cell luciferase reporter assay, PC3pip” value [1] was 1.6 fold.

B8: C29 (bispecific antibody)
chain: EVQLVESGGGLVQPGGSLRLSCVASGDVHKINFLGWYRQAPGKEREKVAHISIGDQTDYADSAKGRFTISRDESKNMVYLQMNSLKPEDTAVYFCRAFSRIYPYDYWGQGTLVTVSSGGGGSGGGGSGGGGSGGGGSQVQLQESGGGSVEAGGSLRLSCARSGWPYSTYSMNWFRQAPGKEREAVAGISSTMSGIIFAESKAGQFTISQDNAKNTVYLQMNNLKPEDTAIYYCAARRYFSLSSSSDDFDYWGQGTQVTVSSAAAYPYDVPDYGSSPSTPPTPSPSTPPHHHHHH
B8 was tested, and the “EC50; T-cell luciferase reporter assay” value [1] was 5.98 nM.

B9: C37 (anti-CD16a sdAb) (VHH)
VHH: EVQLVESGGGLVQPGESLTLSCVVAGSIFSFAMSWYRQAPGKERELVARIGSDDRVTYADSVKGRFTISRDNIKRTAGLQMNSLKPEDTAVYYCNAQTDLRDWTVREYWGQGTQVTVSS
notes: also called CD16a sdAb domain alone; monospecific anti-CD16a sdAb
B9: binds [2].

B10: C25 (C37-L3-C36) (bispecific antibody)
chain: EVQLVESGGGLVQPGESLTLSCVVAGSIFSFAMSWYRQAPGKERELVARIGSDDRVTYADSVKGRFTISRDNIKRTAGLQMNSLKPEDTAVYYCNAQTDLRDWTVREYWGQGTQVTVSSGGGGSGGGGSGGGGSGGGGSQVQLQESGGGSVEAGGSLRLSCARSGWPYSTYSMNWFRQAPGKEREAVAGISSTMSGIIFAESKAGQFTISQDNAKNTVYLQMNNLKPEDTAIYYCAARRYFSLSSSSDDFDYWGQGTQVTVSSAAAYPYDVPDYGSSPSTPPTPSPSTPPHHHHHH
notes: also called C25 (TYR); non-covalent construct C25
For B10, the Kd [3] was 1570 nM, the koff [3] was 0.0483 s⁻¹ and the kon [3] was 30800 M⁻¹ s⁻¹. The “EC50; ADCC reporter assay, 22Rv1 4 h washout, 24 h endpoint” value [4] was 62.6 nM, the “EC50; ADCC luciferase reporter assay (Jurkat CD16a V158 reporter cells), PC3pip 24 h continuous” value [5] was 9.2 nM and the “EC50; ADCC reporter assay, 22Rv1 24 h continual” value [6] was 12.1 nM. For the same binder, the Kd [7] was 1160 nM, the koff [7] was 0.03 s⁻¹ and the kon [7] was 25900 M⁻¹ s⁻¹. The “EC50 [nM]; primary human NK cell-mediated killing of PC3pip cells, no washout, 20 h incubation” value [8] was 7.02 nM, the “EC50 [nM]; NK cell-mediated killing of PC3pip cells, 5 h washout, 20 h incubation” value [9] was 26.2 nM and the Kd [10] was 1.11 nM. For the same binder, the koff [10] was 0.000152 s⁻¹, the kon [10] was 137000 M⁻¹ s⁻¹ and the “EC50; ADCC reporter assay, PC3pip 4 h washout, 24 h endpoint” value [11] was 0.141 nM.

B11: C31 (bispecific antibody)
chain: QVQLQESGGGSVEAGGSLRLSCARSGWPYSTYSMNWFRQAPGKEREAVAGISSTMSGIIFAESKAGQFTISQDNAKNTVYLQMNNLKPEDTAIYYCAARRYFSLSSSSDDFDYWGQGTQVTVSSGGGGSGGGGSGGGGSGGGGSEVQLVESGGGPVQAGGSLRLSCAASGRTYRGYSMGWFRQAPGKEREFVAAIVWSGGNTYYEDSVKGRFTISRDNAKNTMYLQMTSLKPEDSATYYCAAKIRPYIFKIAGQYDYWGQGTLVTVSSAAAYPYDVPDYGSSPSTPPTPSPSTPPHHHHHH
For B11, the “EC50; T-cell luciferase reporter assay” value [1] was 5.33 nM.
